The data set is described as follows: soluble on expression in E. coli; label from the status in PepcDB or PDB records.
As to “MNNLSVNGSSNGLFAKPTIGRSEYGRVKVALAPGKGFMDWLRLTTNKHLAKRVSGGVDHVELMKHNTKDDCWVHLFGIVYDVTKYLDFHPGGIPELLRGAGRDATPLFNQYHAWVNYESMLKACVVGPFIGDLTKLPSPLPPTTSDDKNKLGVPSSALFSTDPSENGYGARVETLSDNSGISFEHDDWTELTEHNTSINTRGEENTEEHARLRVLIHHFWKPAMEFEFEPTPALCHVEYTLKIMKNRVEIRFSREISGGKIDRSKCKIQRRPGVTYHTTEIIDRYRLNHDTLIFSLQLPEHTTYRIPIGHHVSIKIRKGSMGKFSWKFFLIFGYSVLYRPYTPISNPDPQKIDFMIKIYSNGICTPSLENLKIGGELEISDPIGERNFAEWTENAQELILLAAGSGITPMIDIMEKRIQKTENSNSKVYFLMFNKTENDLQTGKPEENPKSTWKMADFYSKYRGDERIVMKNVLSASECPVETGEYFNGRVSTDLLNSIISTSSTASRRAFICGPDGFILAAKTALESLNLHSDQIHIFQG”, the “soluble on expression in E. coli” value is given as “not soluble”.
As for “MGSDKIHHHHHHSCVNDLDTVPLDKDELVSDVVFGNEPLAYEQSLAKIYAGMAIGGNSGGDSDQDVVGIDGGSQASFLRVLWNMQDLPSDIAHCAWNDPGIPEFNHISWGASSPWIKGSYYRLFYQINVANAYLRETAEDKLDARGCDASLKASIKTWRAEARFLRALSYEYALDLYRNVPFVDENSPIGSIPPKQIMAADLFNWIEKELTECVEDMLEPTVGYSQDYGHANKAAAWALLSRLYLNAETYVGQNKYTECITYAKKVIETGYQLEPVYVDMFKADNHLSNEMIFPVRYEGDQTMTWGGMTAFLCWGATATQEEVNAKGAWQGVRAKSSLYNLFLKESGSDADTRKAMLRTDLTTSLEIIDENTFQNNGIPVTKYFNVNKDGTLPPSKEAYVDFPLFRLGEIYLTYAEAVLRGGQGGDRATALRYVNDLRKRAYSDKTLAPISDSDLTLNFIIDERGREFFFEGQRRTDLVRFGLFTTAGYVWPWKGGTAKGKAVENFYNVFPIPSDDIGSNTNLKQNEGY”, the “soluble on expression in E. coli” value is given as “not soluble”.
The same measure for “MKHPIRKTLVTLGLLLTLCLPTPVAASSRSWKSWFIEQYFWLKRDKSYYSKQDDPSFQRYLDACREQSDKPYQLDTNLVNGPLVQENLYGMQVYSWNDNGKPDQKTIIYLAGGSYLNNPTTYHINMLKTLSTSLDAKIVLPIYPKAPRYTYNYTMPKLVNLYQHYYHKNQNVFLMGDSAGGGLALGLAHALHNESVPQPKQLVLLSPWLDVTMSHPEIPEYEDADPILSSWGLKRVGELWAYSADNTNHIYVSPKNGPITYLPPITLFTGTREIFYPDIRDYAAKLKAANHNITFITQEGMNHVYPIYPIEEAKTAQYQIIDAINKTP”: “not soluble”; for “MANMLKIAMLSTGEEVLHGDIVDSNAAWLAREFYQHGFSLAKRATVGDSLPALVEELMMLSFNSDVVIVNGGLGPTSDDITAQAAAQAAEQPLVLNADWLSQLEAFFIGRGRAMPESNRKQAMLPANAEVIDNPIGTACGFKMQINDCWFYFTPGVPKEFYKMVSEQILPNLQRQFPSVQGQQCSRLYTFGTSESSISDKLDKMHLPEGYTLGYRSYLPFIEVKLFGPDQDQERRLSLLKIIHSHLEQYVVSIDEPMLTYLGHVMAEKGLSLALAEQATQGGLSSWLLSDPNVEALAGHSWILSHRVSSELAHQDPLAAAFALAGATKDKCGTQMALVTGALKEDHVSVALSTPNGEWGQTVKFVRRFSAQEQKEWIATLAADMLLRYLTGRSMFVGYSAVERVKEMHLPSSVLN”: “not soluble”.
The same measure for “QRKGVLIILDGLGDRPIKELGGKTPLEYANTPTMDYLAKIGILGQQDPIKPGQPAGSDTAHLSIFGYDPYKSYRGRGYFEALGVGLELDEDDLAFRVNFATLENGVITDRRAGRISTEEAHELAKAIQENVDIPVDFIFKGATGHRAVLVLKGMAEGYKVGENDPHEAGKPPHPFTWEDEASKKVAEILEEFVKKAHEVLDKHPINEKRRKEGKPVANYLLIRGAGTYPNIPMKFTEQWKVKAAAVVAVALVKGVAKAIGFDVYTPKGATGEYNTDEMAKARKAVELLKDYDFVFIHFKPTDAAGHDNNPKLKAELIERADRMIKYIVDHVDLEDVVIAITGDHSTPCEVMNHSGDPVPLLIAGGGVRADYTEKFGEREAMRGGLGRIRGHDIVPIMMDLMN”: “not soluble”; for “AIAGCASAKHVSTVQNEDDAQNGKNYQNGDAFCDEYRIKPVEEVKYMKNGEEEEQKILSKNQENLVSCLEEKSATHTARSKSNTEAAGAGHPYRINIHISESQQEFFRMLDEKIEKGRDYCSEEEDIT”: “soluble”.

The record behind these values is the DeepSol protein solubility set.
